Patent US20230025600A1, “TREATMENT OF CANCERS WITH ANTIBODY DRUG CONJUGATES (ADC) THAT BIND TO 191P4D12 PROTEINS” (AGENSYS, INC., priority 2019, published 2023)

Columns and labels:
[1] = tested on: locally advanced or metastatic urothelial cancer; assay: EV-201 single-arm trial, efficacy (BICR, RECIST v1.1); format: in vivo, human
Experimental: The efficacy of PADCEV was evaluated in EV-201 (NCT03219333), single-arm, multicenter trial that enrolled 125 patients with locally advanced or metastatic urothelial cancer who received prior treatment with a PD-1 or PD-L1 inhibitor and platinum-based chemotherapy. Patients were excluded if they had active CNS metastases, ongoing sensory or motor neuropathy >Grade 2, or uncontrolled diabetes defined as hemoglobin A1C (HbA1c)≥8% or HbA1c≥7% with associated diabetes symptoms.
The median age was 69 years (range: 40 to 84 years), 70% were male, and 85% were Caucasian. […] Ninety percent of patients had visceral metastases including 40% with liver metastases. Two-thirds of patients had pure transitional cell carcinoma (TCC) histology; 33% had TCC with other histologic variants. An immunohistochemistry clinical trial assay was used to assess patients with tumor tissue available, and detected Nectin-4 expression in all patients tested (n=120). The median number of prior systemic therapies was 3 (range: 1 to 6). Forty-six percent of patients received prior PD-1 inhibitor, 42% received prior PD-L1 inhibitor, and an additional 13% received both PD-1 and PD-L1 inhibitors. Sixty-six percent of patients received prior cisplatin-based regimens, 26% received prior carboplatin-based regimens, and an additional 8% received both cisplatin and carboplatin-based regimens.
The major efficacy outcome measures were confirmed objective response rate (ORR) and duration of response (DOR) assessed by blinded independent central review (BICR) using RECIST v1.1.

[2] = Pooled safety in 310 patients (EV-201, EV-101, EV-102); format: in vivo, human
Experimental: Because clinical trials are conducted under widely varying conditions, adverse reaction rates observed in the clinical trials of a drug cannot be directly compared to rates in the clinical trials of another drug and may not reflect the rates observed in practice. The data in the WARNINGS AND PRECAUTIONS section reflect exposure to PADCEV as a single agent at 1.25 mg/kg in 310 patients in EV-201, EV-101 (NCT02091999), and EV-102 ([…]). Among 310 patients receiving PADCEV, 30% were exposed for ≥6 months and 8% were exposed for ≥12 months.

[3] = Outcome of adverse reactions under the dose modification schedule; format: in vivo, human
Source text: The results based on the dose modification schedule as provided are as follows.

[4] = tested on: pregnant rats; assay: Rat embryo-fetal development study; format: in vivo
Source text: Additionally, skeletal anomalies (asymmetric, fused, incompletely ossified, and misshapen sternebrae, misshapen cervical arch, and unilateral ossification of the thoracic centra) and decreased fetal weight were observed.

[5] = Exposure-response analysis; format: in vivo, human
[6] = target: T1, 191P4D12 (Homo sapiens, UniProt Q96NY8); assay: Comparability: analytical and biological characterization studies; settings: binding affinity to 191P4D12, in vitro cytotoxicity, in vivo antitumor activity
T1 sequence (Q96NY8 32-510): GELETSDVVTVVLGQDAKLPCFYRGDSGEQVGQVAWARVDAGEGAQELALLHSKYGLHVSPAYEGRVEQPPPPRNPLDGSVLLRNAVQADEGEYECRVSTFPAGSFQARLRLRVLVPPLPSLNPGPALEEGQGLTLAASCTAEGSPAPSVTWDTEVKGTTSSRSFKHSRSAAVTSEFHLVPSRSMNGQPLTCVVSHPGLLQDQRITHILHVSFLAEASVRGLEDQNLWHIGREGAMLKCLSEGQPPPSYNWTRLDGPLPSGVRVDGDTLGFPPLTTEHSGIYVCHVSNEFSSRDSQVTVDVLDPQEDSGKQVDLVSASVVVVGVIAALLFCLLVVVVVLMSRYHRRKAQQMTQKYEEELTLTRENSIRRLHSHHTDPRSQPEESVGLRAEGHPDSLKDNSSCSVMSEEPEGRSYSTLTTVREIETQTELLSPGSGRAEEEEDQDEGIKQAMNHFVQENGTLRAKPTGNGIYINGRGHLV
Source text: As described above and in U.S. Pat. No. 8,637,642, AGS-22M6E is an ADC derived from a murine hybridoma cell line. Enfortumab vedotin is the a Chinese hamster ovary (CHO) cell line-derived equivalent of AGS-22M6E ADC and is an exemplary product used for human treatment. Enfortumab vedotin has the same amino acid sequence, linker and cytotoxic drug as AGS-22M6E. The comparability between enfortumab vedotin and AGS-22M6E was confirmed through extensive analytical and biological characterization studies, such as binding affinity to 191P4D12, in vitro cytotoxicity, and in vivo antitumor activity.

[7] = Storage of reconstituted vial and prepared infusion bag; format: physicochemical
Experimental: 7. Based upon the calculated dose amount, the reconstituted solution from the vial(s) should be added to the infusion bag immediately. […] If not used immediately, reconstituted vials may be stored for up to […] in refrigeration at 2° C. to 8° C. (36° F. to 46° F.). […] Discard unused vials with reconstituted solution beyond the recommended storage time.
14. If the infusion is not administered immediately, the prepared infusion bag should not be stored longer than […] at 2° C. to 8° C. (36° F. to 46° F.).

[8] = 310 patients in clinical trials
[9] = 310 patients in clinical trials, 1.25 mg/kg
[10] = among patients who experienced hyperglycemia
[11] = among patients who experienced it, dose modification schedule

Question: With enfortumab vedotin-ejfv [PADCEV] as the substance, how does the “median time to response” value ([1]; EV-201) read?
Answer: 1.84 months

Question: And the “Median Duration of Response” value ([1]; EV-201, BICR, median follow-up 10.2 months)?
Answer: 7.6 months

Question: And the “Complete Response Rate (CR)” value ([1]; EV-201, n = 125, BICR)?
Answer: 12%

Question: And the “Partial Response Rate (PR)” value ([1]; EV-201, n = 125, BICR)?
Answer: 32%

Question: And the “Confirmed ORR” value ([1]; EV-201, n = 125, BICR, 1.25 mg/kg Days 1, 8, 15 of 28-day cycle)?
Answer: 44%

Question: And the blurred vision ([2]; 310 patients)?
Answer: 14%

Question: And the dry eye symptoms ([2]; 310 patients)?
Answer: 19%

Question: What about the “extravasation reactions with secondary cellulitis, bullae, or exfoliation” value ([2]; 310 patients) of the same substance?
Answer: One

Question: What about the “median time to onset to symptomatic vision disorder” value ([2]; 310 patients) of the same substance?
Answer: 3.1 months

Question: And the ocular disorders ([2]; 310 patients)?
Answer: 46%

Question: What about the “skin and soft tissue reactions secondary to extravasation” value ([2]; 310 patients) of the same substance?
Answer: 1.3%

Question: What about the “Grade 3-4 skin reactions” value [2, 8] of the same substance?
Answer: 10%

Question: And the maculopapular rash [2, 8]?
Answer: 26%

Question: And the pruritus [2, 8]?
Answer: 30%

Question: And the skin reactions [2, 8]?
Answer: 54%

Question: What about the “peripheral neuropathy Grade 3 reactions” value [2, 9] of the same substance?
Answer: 2%

Question: And the “peripheral neuropathy, predominantly sensory” value [2, 9]?
Answer: 49%

Question: And the “differences in safety or effectiveness between patients 65 years or older and younger patients” value ([2]; 310 patients, 187 were 65 years or older, 80 were 75 years or older)?
Answer: No overall differences

Question: And the “erythema, swelling, increased temperature and pain worsened until, after extravasation” value ([2]; infusion site extravasation)?
Answer: 2 to 7 days

Question: And the “extravasation reactions resolved within, of peak” value ([2]; infusion site extravasation)?
Answer: 1-4 weeks

Question: What about the “incidence of Grade 3-4 hyperglycemia with higher body mass index and higher baseline A1C” value ([2]; patients treated with PADCEV) of the same substance?
Answer: increased consistently

Question: And the “hyperglycemia: complete resolution” value [3, 10]?
Answer: 57%

Question: What about the “hyperglycemia: some improvement” value [3, 10] of the same substance?
Answer: 14%

Question: What about the “rash: complete resolution” value [3, 11] of the same substance?
Answer: 73%

Question: What about the “rash: patients with resolution or improvement” value [3, 11] of the same substance?
Answer: 93%

Question: And the “rash: some improvement” value [3, 11]?
Answer: 20%

Question: What about the “peripheral neuropathy: resolution or Grade 1 after the dose modification” value ([3]; among patients who experienced peripheral neuropathy) of the same substance?
Answer: 76%

Question: And the “ongoing rash that was Grade 1” value ([3]; of those with ongoing rash)?
Answer: 75%

Question: And the “findings in pregnant rats dosed during organogenesis” value ([4]; maternal exposures approximately similar to exposure at recommended human dose of 1.25 mg/kg)?
Answer: maternal toxicity, embryo-fetal lethality, structural malformations and skeletal anomalies

Question: And the “skeletal anomalies and decreased fetal weight” value ([4]; rat pilot embryo-fetal development study)?
Answer: observed

Question: And the “exposure at 5 mg/kg relative to the recommended human dose” value ([4]; rat, 5 mg/kg)?
Answer: approximately 3 times the exposure at the recommended human dose

Question: What about the “outcome at 2 mg/kg” value ([4]; rat, gestation day 6 and 13, 2 mg/kg, approximately similar to exposure at recommended human dose) of the same substance?
Answer: maternal toxicity, embryo-fetal lethality and structural malformations

Question: And the “outcome at the maternally toxic dose of 5 mg/kg” value ([4]; rat, gestation day 6 and 13, 5 mg/kg)?
Answer: complete litter loss in all pregnant rats

Question: And the “association of higher exposure” value ([5]; e.g. Grade >=2 peripheral neuropathy, Grade >=3 hyperglycemia)?
Answer: higher incidence of some adverse reactions

Question: And the “association of lower exposure” value ([5]; exposure-response analysis)?
Answer: lower efficacy

Question: And the “comparability between enfortumab vedotin and AGS-22M6E” value [6]?
Answer: confirmed

Question: What about the “storage time of prepared infusion bag” value ([7]; 2° C. to 8° C.) of the same substance?
Answer: ≤ 8 h

Question: What about the “storage time of reconstituted vials” value ([7]; refrigeration at 2° C. to 8° C.) of the same substance?
Answer: up to 4 hours
